Measurements as given in US20170267778A1 (ADC THERPEUTICS S A, published 2017).

B1: Ab5 (antibody, human IgG1, V domains shown)
VH: EVQLVQSGAEVKKPGESLKISCKISGYIFTDHAIHWVRQMPGKGLEWMGHFSPGNTDIKYNDKFKGQVTLSVDRSINTAYLQWSSLKASDTAIYFCKTSTFFFDYWGQGTRVTVSS
VL: DIVMTQSPLSLPVTPGEPASISCKSSQSLLNSGDQKNYLTWYLQKPGQSPQLLIYWASTRESGVPDRFSGSGSGTDFTLKISRVEAEDVGVYYCQNDYSYPLTFGGGTKVEIK
notes: Expressed as human IgG1/kappa from pFUSE-CHIg-hG1 and pFUSE2-CLIg-hk vectors; also called 5E5RHB10 / 5E5RKB
B2: Ab2 (antibody, V domains shown)
VH: B1 VH
VL: DIVMTQSPDSLAVSLGERATINCKSSQSLLNSGDQKNYLTWYQQKPGQPPKLLIYWASTRESGVPDRFSGSGSGTDFTLTISSLQAEDVAVYYCQNDYSYPLTFGQGTKVEIK
notes: Expressed as human IgG1/kappa from pFUSE-CHIg-hG1 and pFUSE2-CLIg-hk vectors; also called 5E5RHB10 / 5E5RKA
B3: Ab4 (antibody, human IgG1, V domains shown)
VH: QVQLVQSGAEVKKTGSSVKVSCKASGYTFTDHAIHWVRQAPGQALEWMGHFSPGNTDIKYNDKFKGRVTLTVDRSMSTAYMELSSLRSEDTAMYYCKTSTFFFDYWGQGTMVTVSS
VL: B1 VL
notes: Expressed as human IgG1/kappa from pFUSE-CHIg-hG1 and pFUSE2-CLIg-hk vectors; also called 5E5RHA8 / 5E5RKB
B4: Ab6 (antibody, human IgG1, V domains shown)
VH: EVQLVESGAEVKKPGASVEVSCQASGYTFTDHAIHWVRQAPGQGLEWMGHFSPGNTDIKYNDKFKGRVTMTVDRSINTAYMELRRLRSDDTAVYYCKTSTFFFDYWGQGTMVTVSS
VL: B1 VL
notes: Expressed as human IgG1/kappa from pFUSE-CHIg-hG1 and pFUSE2-CLIg-hk vectors; also called 5E5RHC9 / 5E5RKB
B5: Ab1 (antibody, V domains shown)
VH: B3 VH
VL: B2 VL
notes: Expressed as human IgG1/kappa from pFUSE-CHIg-hG1 and pFUSE2-CLIg-hk vectors; also called 5E5RHA8 / 5E5RKA
B6: Ab3 (antibody, V domains shown)
VH: B4 VH
VL: B2 VL
notes: Expressed as human IgG1/kappa from pFUSE-CHIg-hG1 and pFUSE2-CLIg-hk vectors; also called 5E5RHC9 / 5E5RKA
B7: Mouse 5E5 (antibody, V domains shown)
VH: QVQLQQSDAELVKPGSSVKISCKASGYTFTDHAIHWVKQKPEQGLEWIGHFSPGNTDIKYNDKFKGKATLTVDRSSSTAYMQLNSLTSEDSAVYFCKTSTFFFDYWGQGTTLTVSS
VL: DIVMTQSPSSLTVTAGEKVTMICKSSQSLLNSGDQKNYLTWYQQKPGQPPKLLIFWASTRESGVPDRFTGSGSGTDFTLTISSVQAEDLAVYYCQNDYSYPLTFGAGTKLELK
notes: V regions were subcloned into pFUSE-CHIg-hG1 (human IgG1) and pFUSE2-CLIg-hk (human kappa) vectors and expressed in HEK293 cells; also called mouse 5E5 antibody; 5E5VH/5E5VK

Molecular target: T1, 16TR-MUC1-Tn (human, UniProt P15941 126-445, limits assumed, Tn glycoform (GalNAcα1-O-Ser/Thr); glycosylated sites of the reagent not stated)
T1 construct: domain: 16TR; also called Tn-MUC1; TnMUC1
Test: Tn-MUC1 binding ELISA (protocol 4), plate-coated 16TR-MUC1-Tn

T1 sequence (P15941 126-445 limits assumed): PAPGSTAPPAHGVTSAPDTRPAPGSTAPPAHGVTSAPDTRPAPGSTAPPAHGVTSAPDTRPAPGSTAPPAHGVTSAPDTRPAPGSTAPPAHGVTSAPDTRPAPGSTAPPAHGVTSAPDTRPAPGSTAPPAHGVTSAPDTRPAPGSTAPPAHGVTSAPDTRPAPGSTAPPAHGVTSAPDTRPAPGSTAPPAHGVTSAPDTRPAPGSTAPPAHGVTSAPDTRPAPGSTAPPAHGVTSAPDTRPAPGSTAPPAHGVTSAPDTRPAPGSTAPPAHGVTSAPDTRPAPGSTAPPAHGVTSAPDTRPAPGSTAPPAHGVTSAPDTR

B1 and B2 are within 1.5-fold of each other in EC50: 0.0269 µg/mL for the first, 0.0345 µg/mL for the second.

Going from B3 to B4, the EC50 falls from 0.0755 µg/mL to 0.0198 µg/mL (3.8-fold).

Going from B5 to B6, the EC50 rises from 0.0246 µg/mL to 0.0615 µg/mL (2.5-fold).

Binder B7 has an EC50 of 0.0311 µg/mL.
